Data reported in patent US20240279288A1, “APPLICATION OF PLANT JAZ PROTEINS AND DERIVED POLYPEPTIDES IN PREVENTION AND TREATMENT OF HUMAN AND ANIMAL TUMORS” (ANYANG INSTITUTE OF SINO-COTTON INDUSTRY INNOVATION, priority 2021, published 2024).
“Also recorded” adds a separate entry of the source.

Columns and labels:
[1] = tested on: breast epithelial cells (MCF10A); assay: CCK8 cell viability detection, MCF10A; type: cell-based; details: with the increase of GhJAZ1 protein concentration
Description: CCK8 cell viability detection: cell suspension was seeded in 96-well plates at a concentration of 5×10^4 cells/ml (100 μL/well). The plates were placed in the incubator for pre-culture (at 37° C., 5% CO2), and control and protein agents were added to each well 24 h after seeding. The plates were then placed in the incubator for 24 h, followed by addition of 10 μL CCK8 solution into each well and incubation of the plates in the incubator for 0.5-2 h before the absorbance measurement at 450 nm using a microplate reader.
We constructed GhJAZ1 prokaryotic expression plasmid with His-tag to express proteins (see step 2 in Example 4), and then a GhJAZ1 protein, along with 6 His tags, which was approximately 30 KD in size was found by WB detection (A in FIG. 7). The purified GhJAZ1 protein was used to treat breast cancer cells (MCF7) and breast epithelial cells (MCF10A), and the cell viability was measured with CCK8.

[2] = target: T1, c-Myc-150aa (Homo sapiens, UniProt P01106); assay: Yeast two hybrid and LUC with c-Myc truncated to first 150 amino acids; type: binding
T1 construct: expressed in transfected cells
Source text: […]

T1 sequence (P01106 1-150): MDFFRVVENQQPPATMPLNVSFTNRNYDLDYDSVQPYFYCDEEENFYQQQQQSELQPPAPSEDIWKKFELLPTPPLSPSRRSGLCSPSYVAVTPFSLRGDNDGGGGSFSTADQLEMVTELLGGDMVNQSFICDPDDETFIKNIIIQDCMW

B1: GhJAZ1: cotton JAZ1 protein, gene number Gh_A05G0260, sequence SEQ ID No. 4; prokaryotically expressed with His tag, about 30 KD (protein)
chain: MSSCSESTAMKPARSPEKPSFAQTCNLLSQYLKEKGSFGDLSLGMTCNVEANGTPVVPPPTMNLFPLNDKSDDVCGRNGGNPKNLTSMDLFPQQAGLASKDDSPNKLEPQTAPMTIFYGGQVIVFNDFPANKAKEIMLLASNSSSQSNNSFNPIPFTSSIARSPIESSIGVPPTSKPVHPAQRAVPGDLPIARRASLHRFLEKRKDRITAKAPYQINNSAAAPSLSGDNKSWLGLAAQSP
modifications: His tag
notes: prokaryotically expressed with His tag, about 30 KD
[1]
  viability of MCF10A cells: did not change significantly; also recorded: without inhibitory effect
[2]
  interaction with first 150 amino acids truncated c-Myc: strong interactions
